The results in this text go back to the nanobody polyreactivity screen of Harvey et al. (2022).

A short description of this data set: yeast display, Sf9 membrane polyspecificity reagent, FACS + sequencing; frameworks hold sequencing errors. In a few lines: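 A synthetic nanobody library was expressed on Saccharomyces cerevisiae BJ5465 by galactose induction for 36–48 hours. The library was stained for 1 hour at 4 °C with 10% biotinylated, detergent-solubilized Sf9 membrane reagent and enriched with streptavidin microbeads before FACS. Low and high (top ~1%) gates were set on anti-HA fluorescence for expression and streptavidin fluorescence for reagent binding, and each polyreactivity label reflects the gate of origin.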
In the case of “QVQLVESGGGLVQAGGSLRLSCSASGSISHYAMGWYRQAPGKERELVAAISRRGGSTYYADSVKGRFTISRDNAKNTVYLQKNSLKPEDTAVYYCNKATSYFTVRGYDYCGQGTQVTVSS”, the “polyreactivity (PSR sort gate)” value is on record as “high polyreactivity”.

For the sequence “QVQLVESGGGLFQAGGSLRLSCAASGRIFGNNTMGWYRQAPGKERELVAAINSGGRTYYADSVKGRFTISRDNAKYTVYLQMNSLKTEDTAVYYCATTTYKRFYRAPTSKYDYWGQGTLVTVSS”, the “polyreactivity (PSR sort gate)” value is “high polyreactivity”.

For “QVQLVESGGGLVQAGGSLRLSSAASGRTFRYNAMGWYRQAPGKERELVAAIRRGGSTNYADSVKGRITISRDNAKNTVYLQMNSLKPEDTAFYFCAKGHPNDFGYWGQGTQVTVSS”, the “polyreactivity (PSR sort gate)” value is reported as “high polyreactivity”.

As for “QVQLVESGGGLVQAGGSLRLSCAASGRIFDYNTMGWYRQAPGKEREFVAAITSSGGRTYYADSVKGRFTISRDNAKNTVYLQMNSLKPEDTAVYYCAARLNIYYRRMGYWGQGTQVTVSS”, the “polyreactivity (PSR sort gate)” value is given as “high polyreactivity”.

In the case of “QVQLVESGGCLVQAGGSLRLSCAASGSTFTYNAMGWYRQAPGKERELVAAISRTANANYADSVKGRFTISRDNAKNTVYLQMNSLKPEDTAVYYCADDFLDSKVHVRFGYWGKGTQVTVSS”, the “polyreactivity (PSR sort gate)” value was “low polyreactivity”.

For the sequence “QVQLVESGGGLVQAGGSLRLSCAASGSISSYAMGWSRQAPGKERELVASITWHGGGTYYADSVKGRFTISRDNAKNTVYLQMNSLKPEDTAVYYCAKDNYLDPPYFYRFAGYDYCGQGTQVTVSS”, the “polyreactivity (PSR sort gate)” value is listed as “low polyreactivity”.

Regarding “QVQLVESGGGLVQAGGSHRLSCAASGSIFGVYVMGWYRQAPGKERELVAAITRGASTNYADSVKGRFTISRDNAKNSVYLQMNSLKPEDTAVYYCAARQVSVSGHQYGYWGQGSQVTVSS”, the “polyreactivity (PSR sort gate)” value is listed as “low polyreactivity”.

Take “QVQLVESGGGLVQAGGSLRLSCAASGRIFTRYTMGWYRQAPGKERQLVASITSSGSSSYYADSVKGRFTISRDYAKNTVYLQMNSLKPEDTAVYYCAARSRLRYLYDYWGHGTQVTVSS”: the “polyreactivity (PSR sort gate)” value was “high polyreactivity”.

Consider “QVQLVESGGGLVQAGGSLRLSCAASGLTFGTNAMGWSRQAPGKERELVAAISTSSGSTYYSDSVKGRFTISRDNAKNTDYLQMNSLKPEDTAVYYSAAVTVTNLSYYRYYYWGQGTQVTVSS”, for which the “polyreactivity (PSR sort gate)” value was “low polyreactivity”.

Turning to “QDQLVESGGGLVQAGGSLRLSCAASGRTFGEYAMGWYRQAPGKERELVAAISSTGSTYYADSVKGRFTISRDNAKNTVYLQMNSLKPEDTAVYDCAAEIVRYGDEYDYWGQGTQVTVSS”, the “polyreactivity (PSR sort gate)” value was “low polyreactivity”.

With “QVQLVESGGGLVQAGGSLRLSCAASGRTSQYYAMGWYRPAPGKERELVASISRSGRTYYADSVKGRFTISRDNAKNTVYLQMNSLKPEDTAVYYCAAAKRTTHRYPYDYWGQGTQVTVSS”, the “polyreactivity (PSR sort gate)” value is recorded as “high polyreactivity”.

As to “QVQLVESGGGLVQAGGSLRLSCAASGRTFWSYAMGWYRQAPGKVRELVAAITSSGGTTNYADSVKGRFTISRDNAKNTVYLQMNSLKPEDTAVYYCAADNGGAGYYYGYVWYDYWGQGTQVTVSS”, the “polyreactivity (PSR sort gate)” value was “low polyreactivity”.

As for “QVQLVESGGGLVQAGGSLRLSCAASGRIFARYAMGWYRPAPGKERELVAAITKSVGSTYYADSVKGRFTISRDNAKYTVYLQMNRLKPEDTAVYYCNAVARGYGYDYWGQGTQVTVSS”, the “polyreactivity (PSR sort gate)” value is reported as “high polyreactivity”.

As for “QVQLVESGGGLVQAGGSLRLSCAASGSTFGYYAMGWYRQAPGKERELVAAISYRSGSTYYADSVKGRFTISRDNAKNTVYLQMNSLKPEDTAVYYCAAVIQGQQRYEYWGQGTQVTVSS”, the “polyreactivity (PSR sort gate)” value is recorded as “high polyreactivity”.

For “QVQLVESGGGLVQAGGSLRLSCAASGSIFRINAMGWYRQAPGKERELVAAISTSGGTTYYADSVKGRFTISRDNAKNTVYLQMNSLKPEDTAVYYCAARRVTSPFGSDSWGQGTQVTVSS”, the “polyreactivity (PSR sort gate)” value is recorded as “low polyreactivity”.

On to “QVQLVESGGGLVQAGGSLRLSCAASGSTFVNNAMGWSREARGKERELVAAIRSSDGRTYYADSVKGRFTISRDKAKNTVYLQMNSLKPEDTAVDYCATAVGTKYRTRIFEYYYWGQGTQVTVSS”, for which the “polyreactivity (PSR sort gate)” value was “high polyreactivity”.

For the sequence “QVKLVESGGGLVQAGGSLRLSCAASGFTVYGYSMGWYRQEPGKERELVAAITSVGDTNYADSVKGRFTISRDNAKNNVYLQINSLKPEDTAVYYCKADPVYYFYWWTGDYWGQGTQETVSS”, the “polyreactivity (PSR sort gate)” value is listed as “low polyreactivity”.

For the sequence “QVQLVESGGGLVQAGGSLRLSCAASGFIFQAYAMGWYRQAPGKERELVASISYSGSRTYYADSVKGRFTISRDNAKNTVYLQMNSLKPEDTAVYYCAAGPRYWAPWFGRDYEYWGQGTQVTVSS”, the “polyreactivity (PSR sort gate)” value is “high polyreactivity”.

On to “QVQLVESGGGLVQAGGSLRLSCAASGSTFGSYAMGWYRQAPGKERELVAAISRSGTSTYYADSVKGRFTISRDNAKNTVYLQMNSLKPEETAVYYCAAKFVTSGGLEGYWGQGTQVTVSS”, for which the “polyreactivity (PSR sort gate)” value is listed as “high polyreactivity”.

Regarding “QVQLVESGGGLVQAGFSLRLSCAASGSTFQSYTMGRSRQAPGKERELVAAISSSGGRTYYADSVKGRYTISRDYAKNTVYLQMNSLNPEDTAVYYCAAVSKSWRGATWYDYWGQGTQVTVSS”, the “polyreactivity (PSR sort gate)” value is on record as “high polyreactivity”.

In the case of “QVQLVESGGGLVQAGGSLRLSCAASGSIFPVYAMGWYRQAPGKERELVAAISWIGGGTYYADSVKGRFTISRDNAKNTVYLQMNSLKPEDTAVYYCAAVPYTSEYDYWGQGTKVTVSS”, the “polyreactivity (PSR sort gate)” value is listed as “high polyreactivity”.

In the case of “QVQLVESGGGLVQAGGSLRLSCAASGFTFRRYAMGWYRQAPGKERELVARISFNGGSTFYADSVKGRFTISRDNAKNTVYLQMNSLKPEDTAVYYCAAVFGGRSLSRTYGYDYWGQGTQVTVSS”, the “polyreactivity (PSR sort gate)” value is “high polyreactivity”.

In the case of “QVQLVESGGGLVQAGGSLRLICAASGLTFRPNSMGWFRQAPGKERELVAAITWLGGRTYYADSVKGRFTISRDNSKNTVYLQMNSLKPEDTEVYYCSADSPYRGRQCPLNYGGDYWGQGTQVTVSS”, the “polyreactivity (PSR sort gate)” value is reported as “high polyreactivity”.

For the sequence “QVQLVESGGGLVQAGGSLRLSCAASGSTSGKYAMGWYRQAPGKERELVAGITKGGGGTYYADSVKGRFTISRDNAKNTVYLQMNSLKPEDTAVYYCAAGTLYSLYFGRHGYWGQGTQVTVSS”, the “polyreactivity (PSR sort gate)” value is listed as “low polyreactivity”.

As to “QVQLVESGGGLVQAGGSLRLSCAASGRTFRYYAIGWYRQAPGKERELVAAISSSGASTYDAESVKGRFTISRDNAKYTVYLQMNSLKPEDTAVYYCRSGILFYSRYDYWGQGTQVTVSS”, the “polyreactivity (PSR sort gate)” value was “low polyreactivity”.

As for “QVQLVESGGGLVQAGGSLRLSCAASGFIFWYYAMGWYRQAPGKERELVAGITSGGSTNYADSVKGRFTISRDNAKNSVYLQMNSLKPEDTAVYYCAAAPYGGFGRGYDYWGQGTQVTVSS”, the “polyreactivity (PSR sort gate)” value is given as “high polyreactivity”.

Regarding “QVQLVDSGGGLVQAGGSLRLSCAASGRTFRHNAMGWYRQAPGKERELVATISNRGGTSYYADSVKGRFTISRDNANNTVYLQMNSLKPEDTAVYYCAARVGVLGYVRYGYWGHGTQVTVSS”, the “polyreactivity (PSR sort gate)” value is listed as “low polyreactivity”.

Turning to “QVQLVESGGGLVQAGGSLRLSCAASGRIFGSNTLGWYRQAPGKEREMVAAISRRGGSTYYADSVKGRFTISRDNAKNTVYLQINSLKPEDTAVYYCAAVGTGSSLRYDYWGQGTQVTVSS”, the “polyreactivity (PSR sort gate)” value is listed as “high polyreactivity”.

On to “QVQLVESGGGLVQAGGSLRLSSAASGRIFYGYAMGWYRQAPGKERELVAGISYRGARTYYADSVKGRFTISRDNAKNTVYLQMNSLKPEDTAVYYCNAVPYYPFAFGALDYWGQGTQVTVSS”, for which the “polyreactivity (PSR sort gate)” value is “high polyreactivity”.

On to “QVQLVESGGGLVQAGGSLRLSCAASGFIFRKYAMGWYRQAPGKERELVAAIRQRGGTTYYADSVKGRFTISRDNAKNTVYLQMNSLKPEDTAVYYCAAPYSSAYKYDYWGQGTQVTVSS”, for which the “polyreactivity (PSR sort gate)” value is listed as “high polyreactivity”.

Consider “QVQLVESGGGLVQAGGSLRLSCAASGRTFAYNAMGWYRQAAGKVRELVASITSGGSTNYADSVKGRFTISRDNAKNTVYLQMNSLKPEDTAVYYFIKDGKYHRVLYEYWGQGTQVTVSS”, for which the “polyreactivity (PSR sort gate)” value is “low polyreactivity”.

As for “QVQIEESVGDLVQAGGSLRLICAASGRTFPVYDMGWYRQAPGKERELVAAISRRAVRTYYADSVKGRFTISRDIAKNTVYLQMNSLKPEDTAVYYCNAVLRKITYDYWGQGTQVTVSS”, the “polyreactivity (PSR sort gate)” value is “high polyreactivity”.

On to “QVQLVESGGGLVHAGGSLRLSCAASGSIFTWNGMGWYRQAPGKERELVAGMSYSGGITYTDSVKGRFTISRDNAKNTVYLQMNSLKPEDTAVYYCNARSKVAYYRHYYWGQGTQVTVSS”, for which the “polyreactivity (PSR sort gate)” value is “low polyreactivity”.

With “QVQLVESGGGLYQAGGSLRLSCAASGRIFYCYAMGSYRQAPGKERELVAAISWRGGRTYYADSVKGRFTISRDNAKNTVYLQMNSLIPEDTAVYYCNTDFPPQGQLRNMSYWGQGTQVTVSS”, the “polyreactivity (PSR sort gate)” value is “high polyreactivity”.

On to “QVQLVESGGGLVQAGGSLRLSCAASGRTFGIYAMGWYRQAPGKERELVATISWRGGSTYYADSVKGRFTISRDNAKNTVYLQMNSLKPEDTAVYYCAAGYYPYWGQGTQVTVSS”, for which the “polyreactivity (PSR sort gate)” value is “low polyreactivity”.

“QVQLVESGGGLVQAGGSLRLSCAASGSTFWANAMGWYRQAPGKERELVAAITSTGITYYADSVKGRFTISRDNAKNTVYLQMNSLKPEDTAVYYCNTRGTYRYDYWGQGTQVTVSS”: the “polyreactivity (PSR sort gate)” value was “low polyreactivity”.

For the sequence “QVQLEESRGGLVQAGGSLRLICAASGFTFRQNAMGWYRQAPGKERELVAAISRGGGGTHYADSVKGRFSISRDNAKNTVYLQMNSLKPEDTAVYYCAKRRYPTFVVPVYYWGQGTQVTVSS”, the “polyreactivity (PSR sort gate)” value is “high polyreactivity”.

For “QVQLVESGGGLVQAGGSLRLSCAASGRILNINAMGWYRQAPGQERELVAAITWRGGRTFYADSVKGRFTISRDNAKNTVYLQMNSLKPEDTAVYYCAASSNTWYPTGYYWGQGTQVTVSS”, the “polyreactivity (PSR sort gate)” value is “high polyreactivity”.

Consider “QVQLVESGGGLVQAGGSLRLSCAASGRIFRNYAMGWYRQAPGKERELVAAISVSGGRTYYADSVKGRFTISRDNAKNTVYLQMNSLKPEDTAVYYCAARTGRQGYSRGYNSWGQGTQVTVSS”, for which the “polyreactivity (PSR sort gate)” value was “high polyreactivity”.

“QVQHEESGGGLVQAGGSLRLSCAASGITINFYDMGRYRQARGKERELGAAITASGGGSTYYADSVKGRFTISRDNAKNTVYLQMNSLKPEYTAVYYCNADSTGSFYTFDYWGQGTQVTVSS”: the “polyreactivity (PSR sort gate)” value is “low polyreactivity”.

With “QVHLVESGGGLVQAGGSLRLSSAASGSIFQVYAMGWYRQAPGTERELVAGISRGGSTYYADSVKGRFTISRDNAKNTVYLQMNSLKPEDTAVYYCAARGGGIRAYGSNRRSFYYWGQGTQVTVSS”, the “polyreactivity (PSR sort gate)” value is listed as “high polyreactivity”.
